From patent US12467929

Assays:
[1] = target: recombinant UBE3A protein (Homo sapiens (Human)) (UniProt Q05086); experiment: 2-step Simoa; capture GTX; UBE3A 1 ng/ml
[2] = target: recombinant UBE3A protein (Homo sapiens (Human)) (UniProt Q05086); experiment: 3-step Simoa; capture GTX; UBE3A 10 ng/ml
[3] = target: recombinant UBE3A protein (Homo sapiens (Human)) (UniProt Q05086); experiment: 3-step Simoa; capture MS 2F6; UBE3A 1 ng/ml
[4] = target: recombinant UBE3A protein (Homo sapiens (Human)) (UniProt Q05086); experiment: 3-step Simoa; capture Novus; UBE3A 0.1 ng/ml
[5] = target: recombinant UBE3A protein (Homo sapiens (Human)) (UniProt Q05086); experiment: 3-step Simoa; capture MS 2F6; UBE3A 10 ng/ml
[6] = target: recombinant UBE3A protein (Homo sapiens (Human)) (UniProt Q05086); experiment: 2-step Simoa; capture GTX; UBE3A 10 ng/ml
[7] = target: recombinant UBE3A protein (Homo sapiens (Human)) (UniProt Q05086); experiment: 2-step Simoa; capture Novus; UBE3A 10 ng/ml
[8] = target: recombinant UBE3A protein (Homo sapiens (Human)) (UniProt Q05086); experiment: 2-step Simoa; capture MS 2F6; UBE3A 0.01 ng/ml
[9] = target: recombinant UBE3A protein (Homo sapiens (Human)) (UniProt Q05086); experiment: 2-step Simoa; capture MS 2F6; UBE3A 1 ng/ml
[10] = target: recombinant UBE3A protein (Homo sapiens (Human)) (UniProt Q05086); experiment: 3-step Simoa; capture Novus; UBE3A 0.01 ng/ml
[11] = target: recombinant UBE3A protein (Homo sapiens (Human)) (UniProt Q05086); experiment: 3-step Simoa; capture Novus; UBE3A 1 ng/ml
[12] = target: recombinant UBE3A protein (Homo sapiens (Human)) (UniProt Q05086); experiment: Simoa head-to-head, Table 10; capture GTX; UBE3A 500 ng/ml
[13] = target: recombinant UBE3A protein (Homo sapiens (Human)) (UniProt Q05086); experiment: 2-step Simoa; capture Novus; UBE3A 0.1 ng/ml
[14] = target: recombinant UBE3A protein (Homo sapiens (Human)) (UniProt Q05086); experiment: 2-step Simoa; capture GTX; UBE3A 0.01 ng/ml
[15] = target: recombinant UBE3A protein (Homo sapiens (Human)) (UniProt Q05086); experiment: 2-step Simoa; capture Novus; UBE3A 0.01 ng/ml
[16] = target: recombinant UBE3A protein (Homo sapiens (Human)) (UniProt Q05086); experiment: 3-step Simoa; capture Novus; UBE3A 10 ng/ml
[17] = target: recombinant UBE3A protein (Homo sapiens (Human)) (UniProt Q05086); experiment: 3-step Simoa; capture GTX; UBE3A 0.01 ng/ml
[18] = target: recombinant UBE3A protein (Homo sapiens (Human)) (UniProt Q05086); experiment: 2-step Simoa; capture MS 2F6; UBE3A 10 ng/ml
[19] = target: recombinant UBE3A protein (Homo sapiens (Human)) (UniProt Q05086); experiment: 2-step Simoa; capture MS 2F6; UBE3A 0.1 ng/ml
[20] = target: recombinant UBE3A protein (Homo sapiens (Human)) (UniProt Q05086); experiment: 3-step Simoa; capture MS 2F6; UBE3A 0.1 ng/ml
[21] = target: recombinant UBE3A protein (Homo sapiens (Human)) (UniProt Q05086); experiment: 2-step Simoa; capture Novus; UBE3A 1 ng/ml
[22] = target: recombinant UBE3A protein (Homo sapiens (Human)) (UniProt Q05086); experiment: 3-step Simoa; capture GTX; UBE3A 1 ng/ml
[23] = target: recombinant UBE3A protein (Homo sapiens (Human)) (UniProt Q05086); experiment: 3-step Simoa; capture GTX; UBE3A 0.1 ng/ml

Sequence of UniProt Q05086 (Q05086 whole entry): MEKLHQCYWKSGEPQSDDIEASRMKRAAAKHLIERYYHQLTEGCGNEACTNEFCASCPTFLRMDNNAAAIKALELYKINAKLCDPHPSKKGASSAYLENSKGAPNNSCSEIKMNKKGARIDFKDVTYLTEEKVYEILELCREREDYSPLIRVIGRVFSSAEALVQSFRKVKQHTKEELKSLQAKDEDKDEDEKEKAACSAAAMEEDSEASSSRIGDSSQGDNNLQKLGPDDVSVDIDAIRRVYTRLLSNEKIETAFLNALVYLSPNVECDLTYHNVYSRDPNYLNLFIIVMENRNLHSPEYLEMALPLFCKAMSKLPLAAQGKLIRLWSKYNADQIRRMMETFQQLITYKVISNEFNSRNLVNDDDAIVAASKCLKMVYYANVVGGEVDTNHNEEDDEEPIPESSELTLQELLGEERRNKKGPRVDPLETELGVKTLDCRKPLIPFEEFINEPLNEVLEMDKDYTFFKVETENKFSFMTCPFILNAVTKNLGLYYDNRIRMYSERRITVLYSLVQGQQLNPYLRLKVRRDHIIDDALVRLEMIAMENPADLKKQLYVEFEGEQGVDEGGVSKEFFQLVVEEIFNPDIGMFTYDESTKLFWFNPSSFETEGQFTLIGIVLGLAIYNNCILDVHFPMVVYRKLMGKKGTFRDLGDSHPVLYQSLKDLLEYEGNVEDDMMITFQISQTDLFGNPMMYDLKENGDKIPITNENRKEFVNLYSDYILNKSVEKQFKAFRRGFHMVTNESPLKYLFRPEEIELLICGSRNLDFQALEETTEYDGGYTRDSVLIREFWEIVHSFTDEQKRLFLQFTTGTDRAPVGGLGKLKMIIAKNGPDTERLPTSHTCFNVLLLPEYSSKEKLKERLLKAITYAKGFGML

What does the source list for “anti-UBE3A antibody 3E5 (SAB1404508-100 ug, Millipore-Sigma)”?
AEB1 [1]: 0.152; AEB2 [1]: 0.157; Ave AEB [1]: 0.154; AEB1 [2]: 0.404; AEB2 [2]: 0.425; Ave AEB [2]: 0.414; Signal to Background [2]: 48.5; AEB1 [3]: 0.0206; AEB2 [3]: 0.0228; Ave AEB [3]: 0.0217; Signal to Background [3]: 5.52; AEB1 [4]: 0.0142; AEB2 [4]: 0.0119; Ave AEB [4]: 0.013; Signal to Background [4]: 1.38; AEB1 [5]: 0.177; AEB2 [5]: 0.188; Ave AEB [5]: 0.183; Signal to Background [5]: 46.6; AEB1 [6]: 0.724; Ave AEB [6]: 0.724; AEB1 [7]: 0.174; AEB2 [7]: 0.164; Ave AEB [7]: 0.169; Signal to Background [7]: 6.77; AEB1 [8]: 0.0113; AEB2 [8]: 0.0141; Ave AEB [8]: 0.0127; Signal to Background [8]: 1.13; AEB1 [9]: 0.0424; AEB2 [9]: 0.0451; Ave AEB [9]: 0.0437; Signal to Background [9]: 3.9; AEB1 [10]: 0.0105; AEB2 [10]: 0.0102; Ave AEB [10]: 0.0104; Signal to Background [10]: 1.09; AEB1 [11]: 0.0276; AEB2 [11]: 0.0233; Ave AEB [11]: 0.0254; Signal to Background [11]: 2.68; AEB1 [12]: 12.3; AEB2 [12]: 11.6; Ave AEB [12]: 11.9; Signal to Background [12]: 526; AEB1 [13]: 0.0237; AEB2 [13]: 0.0272; Ave AEB [13]: 0.0255; Signal to Background [13]: 1.02; AEB1 [14]: 0.0162; AEB2 [14]: 0.0168; Ave AEB [14]: 0.0165; AEB1 [15]: 0.0302; AEB2 [15]: 0.0257; Ave AEB [15]: 0.028; Signal to Background [15]: 1.12; AEB1 [16]: 0.159; AEB2 [16]: 0.154; Ave AEB [16]: 0.156; Signal to Background [16]: 16.5; AEB1 [17]: 0.0084; AEB2 [17]: 0.0082; Ave AEB [17]: 0.0083; Signal to Background [17]: 0.972; AEB1 [18]: 0.334; AEB2 [18]: 0.338; Ave AEB [18]: 0.336; Signal to Background [18]: 30; AEB1 [19]: 0.0169; AEB2 [19]: 0.0141; Ave AEB [19]: 0.0155; Signal to Background [19]: 1.38; AEB1 [20]: 0.0063; AEB2 [20]: 0.0064; Ave AEB [20]: 0.0063; Signal to Background [20]: 1.62; AEB1 [21]: 0.0412; AEB2 [21]: 0.0426; Ave AEB [21]: 0.0419; Signal to Background [21]: 1.68; AEB2 [22]: 0.0774; Ave AEB [22]: 0.0774; Signal to Background [22]: 9.06; AEB1 [23]: 0.0204; AEB2 [23]: 0.0181; Ave AEB [23]: 0.0192; Signal to Background [23]: 2.25
